± gives the uncertainty stated by the source.
Assay: self-splicing fitness, log relative to wild type (ln ratio); higher = more splicing; Tetrahymena group I intron in knt gene, E. coli kanamycin selection, DiMSum; sequences stand for … in CUCUCU…GGAGGGAAAAGUUAUCAGGCAUGCACCUGGUAGCUAGUCUUUAAACCAAUAGAUUGCAUCGGUUUAAAAGGCAAGACCGUCAAAUUGCGGGAAAGGGGUCAACAGCCGUUCAGUACCAAGUCUCAGGGGAAACUUUGAGAUGGCCUUGCAAAGGGUAUGGUAAUAAGCUGACGGACAUGGUCCUAACCACGCAGCCAAGUCCUAAGUCAACAGAUCUUCUGUUGAUAUGGAUGCAGUUCACAGACUAAAUGUCGGUCGGGGAAGAUGUAUUCUUCUCAUAAGAUAUAGUCGGACCUCUCCUUAAUGGGAGCUAGCGGAUGAAGUGAUGCAACACUGGAGCCGCUGGGAACUAAUUUGUAUGCGAAAGUAUAUUGAUUAGUUUUGGAGUACUCGUGGUCG
Method in brief: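 A randomised library covering all eight P1ex-region intron nucleotides was built with the intron in the knt kanamycin-resistance gene on pET-22b(+) and held in E. coli BL21(DE3). Cells were grown overnight at 37°C or 30°C on LB agar, with or without 25 μg/mL kanamycin, plus 100 μg/mL carbenicillin, 50 μM IPTG and 0.2% rhamnose, and pooled colonies were amplicon-sequenced on an Illumina HiSeq 2500. DiMSum fitness is the error-weighted combination of wild-type-normalised replicate fold changes, kanamycin versus none.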

Sequence	self-splicing fitness (ln) (37 °C)	self-splicing fitness (ln) (30 °C)
UAGGAGCAAUAUUACGCUAC	0.223 ± 0.43	
UUCAAGCAAUAUUACGUUUU	-2.65 ± 0.16	-3.78 ± 0.17
UUGGAGCAAUAUUACGGUCU	-2.45 ± 0.48	-3.4 ± 0.49
AUCGAGCAAUAUUACGGUGU	-1.71 ± 0.14	-2.74 ± 0.1
GUUCAGCAAUAUUACGUAUG	-0.968 ± 0.099	-2.03 ± 0.1
AGGUAGCAAUAUUACGGAGU	-1.72 ± 0.034	-3.487 ± 0.021
CCCUAGCAAUAUUACGUGUG	-2.43 ± 0.13	-4.41 ± 0.24
UCACAGCAAUAUUACGAGUU	-2.08 ± 0.14	-3.54 ± 0.17
ACGGAGCAAUAUUACGAGUG	-2.8 ± 0.38	
UUUCAGCAAUAUUACGCUCG	0.385 ± 0.15	0.0268 ± 0.097
CUGAAGCAAUAUUACGAAAC		-3.39 ± 0.25
GUUCAGCAAUAUUACGAAUU	-1.14 ± 0.14	-1.52 ± 0.14
GCAUAGCAAUAUUACGAACG	-0.356 ± 0.18	-0.883 ± 0.14
UUGCAGCAAUAUUACGGGCC	-2.3 ± 0.17	-3.8 ± 0.22
UAAUAGCAAUAUUACGUUGC	-2.71 ± 0.31	-3.64 ± 0.23
GACUAGCAAUAUUACGCAAA	-1.88 ± 0.23	-1.49 ± 0.15
ACACAGCAAUAUUACGAGGA	-1.66 ± 0.18	-2.42 ± 0.2
CUCCAGCAAUAUUACGAUAC	-1.94 ± 0.32	-3.57 ± 0.31
CGUAAGCAAUAUUACGUUGG	-0.912 ± 0.13	-1.93 ± 0.12
UCAUAGCAAUAUUACGCAUA	-1.34 ± 0.47	
GUUCAGCAAUAUUACGCAUC	-0.361 ± 0.14	-0.592 ± 0.12
CAAUAGCAAUAUUACGGCCU	-3.6 ± 0.39	-2.69 ± 0.21
CCAUAGCAAUAUUACGGCUG	-1.62 ± 0.14	-3.05 ± 0.15
UUUUAGCAAUAUUACGCGUC	-1.23 ± 0.25	
UACGAGCAAUAUUACGGACC	-3.19 ± 0.43	-3.28 ± 0.24

Sequence	self-splicing fitness (ln) (37 °C)	self-splicing fitness (ln) (30 °C)
AGAAAGCAAUAUUACGACAA	0.0351 ± 0.089	-0.576 ± 0.087
GGAAAGCAAUAUUACGCGAC	-1.73 ± 0.25	-2.95 ± 0.24
AUGAAGCAAUAUUACGCUUU	-2.11 ± 0.21	-3.68 ± 0.2
GCGCAGCAAUAUUACGUCUC	0.525 ± 0.12	-0.0041 ± 0.098
CAUGAGCAAUAUUACGCGCA	-1.31 ± 0.16	-2.89 ± 0.19
CGCUAGCAAUAUUACGGUCA	0.137 ± 0.079	-0.0527 ± 0.076
UGCAAGCAAUAUUACGGAGU	-3.18 ± 0.16	-2.83 ± 0.14
GAGAAGCAAUAUUACGGAAA	-1.92 ± 0.35	-2.35 ± 0.45
UACAAGCAAUAUUACGAAUC	-2.7 ± 0.22	-3.62 ± 0.17
GCAAAGCAAUAUUACGCAUC	-1.4 ± 0.17	-1.98 ± 0.16
GCCAAGCAAUAUUACGUUCA	-0.947 ± 0.12	-2.12 ± 0.11
CCCCAGCAAUAUUACGAUCG	-0.917 ± 0.14	-2.85 ± 0.13
CAUCAGCAAUAUUACGAACU	-0.499 ± 0.17	-3.37 ± 0.21
UCGCAGCAAUAUUACGCGGA	-2.29 ± 0.25	
GAACAGCAAUAUUACGCAUC	-2.01 ± 0.12	-2.79 ± 0.095
UAGCAGCAAUAUUACGAGCA	0.249 ± 0.13	-1.48 ± 0.13
UGUGAGCAAUAUUACGUCCG	-0.0626 ± 0.17	-0.363 ± 0.12
CAGCAGCAAUAUUACGCCGA	-0.864 ± 0.091	-1.81 ± 0.12
GGCAAGCAAUAUUACGCGAG	-3.34 ± 0.24	-2.32 ± 0.14
CUAGAGCAAUAUUACGCAAG	-0.42 ± 0.11	-1.8 ± 0.096
CGCAAGCAAUAUUACGCUCA	-0.6 ± 0.088	-0.828 ± 0.076
GCCUAGCAAUAUUACGACAG	-2.82 ± 0.28	-3.52 ± 0.29
UUUAAGCAAUAUUACGUUGA	-1.5 ± 0.2	-2.17 ± 0.23
UCUUAGCAAUAUUACGGGGC	-3.03 ± 0.27	-3.82 ± 0.3
AGUUAGCAAUAUUACGCGGA	-0.581 ± 0.14	-0.823 ± 0.29

Reference: the supplement of paper PMC7877785
